Data as given in patent US8030017B2, “Thermostable luciferases and methods of production” (Promega Corporation, priority 1997, dated 2011).

Assays:
[1] = Stability of luciferase activity in cell lysates at room temperature (with Triton X-100); format: physicochemical; conditions: over 5 hours at room temperature
Procedure: Although the luminescence activity of LucPpl within colonies of E. coli appeared to be thermostable to above 60° C., in lysates these luciferases had relatively low stability. They were particularly unstable in the presence of Triton X-100 detergent. When lysates are prepared containing the commonly used firefly luciferase, the enzyme retains greater than 90% activity over 5 hours at room temperature. In contrast, the activity of the LucPpl luciferases would decrease several fold over the same period.
The thermostability of the mutant luciferases in cell lysates was compared at room temperature (FIG. 63). Dilute lysates were buffered at pH 7.5 and contained 1% Triton X-100; typical conditions for lysates of mammalian cells.

[2] = Robotic thermostability screen of LucPpl mutants: decrease of activity over 10 hours at screening temperature; format: physicochemical; conditions: 47° C., third cycle of random mutagenesis
Procedure: “Enzyme stability” was determined by the rate of activity loss from cell lysates over 10 hours. In successive rounds of evolution the incubation temperature of the lysates was increased.
To prepare luciferases having certain performance, a method for in vitro evolution of enzyme function, as described above, was employed. Briefly described, the method is a recursive process of generating random mutations and screening for desirable properties. It was originally developed primarily to increase the thermostability of luciferases, although other enzymological characteristics are also subject to optimization by the screening criteria. A slightly different strategy was used to achieve the properties described above since two related luciferases needed to be optimized concomitantly.
The luciferases from P. plagiophthalamus have 13 cysteines, which are potentially sensitive to oxidation. This is in contrast to the commonly used firefly luciferase, which has only 4 cysteines. To remove any cysteines that may limit enzyme stability, oligonucleotide-directed mutagenesis was used to randomize the cysteine codons. Three sets of oligonucleotides were used: non-conserved cysteines in regions of low sequence homology (positions 69, 114, 160, 194, 335, and 460), non-conserved cysteines in regions of higher sequence homology (positions 127, 213, 310, and 311), and highly conserved cysteines (positions 60, 80, and 388). […]
The random mutagenesis process was repeated using the best clone from the previous cycle of mutagenesis (Luc53-0G01). […] The discrepancy in measured activity of Luc53-0G01 in this cycle of mutagenesis compared to the previous cycle may be due to changes in the assay procedure and recalibration of the incubator temperature. It should be noted that the recorded thermostabilities from each stage of mutagenesis are calculated from robotic data using abbreviated assay procedures. The data are intended to indicate the relative stabilities of enzyme mutants when assayed in the same screen, rather than providing an accurate quantitation of thermostability.

[3] = Luminescence signal intensity and signal stability in vitro of LucPpl luciferases; format: biochemical; conditions: lysate with 1% Triton X-100
Description: For luminescence assays requiring only a few second, the wild-type yellow-green-emitting luciferase produces a very stable signal (the initial rise in the signal evident in the first 2 seconds is due to the response time of the luminometer, not the kinetics of the luminescence reaction). However, the signal intensity was reduced about 30% by the presence of 1% Triton X-100 in the lysate (diluted 1:5 with the addition of assay reagent). In contrast, the luminescence intensity of the mutant luciferases was unaffected by the presence of Triton X-100. […] However, the data are not corrected for the efficiency of enzyme expression in E. coli. Thus, differences in luminescence intensity may not correlate to changes in enzyme specific activity, nor is the expression efficiency in E. coli necessarily relevant to expression in mammalian cells.
For batches of assays requiring more than an hour to process, the signal stability of the yellow-green-emitting luciferase is inadequate under the conditions tested. […] Attempts to correct this by the in vitro evolution yielded mixed results. The signal stability of all three mutant enzymes was generally much improved over the parent yellow-green enzyme for three hours after substrate addition. However, this was accompanied by a greater initial decrease in luminescence during the first half-hour. […]

[4] = system: colonies of E. coli; test: Luminescence of E. coli colonies expressing LucPpl luciferases at room temperature and on heating; format: cell-based; conditions: room temperature
Procedure: From colonies of E. coli expressing the luciferases, Luc81-5F01 and Luc81-6G01 produced luminescence most rapidly at room temperature upon addition of luciferin. The luminescence was more rapid and brighter than colonies expressing the wild-type green- and yellow-green-emitting luciferases. The luminescence from all the selected colonies appeared green-shifted compared to the yellow-green parent clone. […] Some of the mutant clones loose their luminescence at 65° C., but the three preferred clones remain bright above 70° C. No spectral changes upon heating the colonies were evident until above 70° C., where those clones still retaining activity began to red-shift slightly (sometime, the initial phases of enzyme denaturation are accompanied by a red shift in the luminescence). The luminescence characteristics of the three preferred mutants are quite similar.

Molecule | activity retained in lysates [1] | decrease of activity [2] [fold] | stability of luminescence signal in assays of a few seconds [3] | onset of luminescence in E. coli colonies upon addition of luciferin [4]
firefly luciferase: the commonly used firefly luciferase | greater than 90% |  |  | 
Luc81-6G01: LucPplYG mutant luciferase, SEQ ID NO:26 (protein, Mutant luciferase) MMKREKNVIYGPEPLHPLEDLTAGEMLFRALRKHSHLPQALVDVVGDESLSYKEFFEATVLLAQSLHNCGYKMNDVVSICAENNTRFFIPVIAAWYIGMIVAPVNESYIPDELCKVMGISKPQIVFTTKNILNKVLEVQSRTNFIKRIIILDTVENIHGCESLPNGISRYSDGNIANFKPLHFDPVEQVAAILCSSGTTGLPKGVMQTHQNICVRLIHALDPRAGTQLIPGVTVLVYLPFFHAFGFSITLGYFMVGLRVIMFRRFDQEAFLKAIQDYEVRSVINVPSVILFLSKSPLVDKYDLSSLRELCCGAAPLAKEVAEVAAKRLNLPGIRCGFGLTESTSANIHSLRDEFKSGSLGRVTPLMAAKIADRETGKALGPNQVGELCIKGPMVSKGYVNNVEATKEAIDDDGWLHSGDFGYYDEDEHFYVVDRYKELIKYKGSQVAPAELEEILLKNPCIRDVAVVGIPDLEAGELPSAFVVKQPGKEITAKEVYDYLAERVSHTKYLRGGVRFVDSIPRNVTGKITRKELLKQLLEKAGG |  | 100 | most stable signal | most rapidly
